Assay results from publication PMC3582566.

Target: S. mutans VicK (aa31-450), entire intracellular region (S. mutans)
Assay: SEC-MALS; VicK at ~4 mg/ml resolved on a size exclusion column (Shodex KW-802.5) in 50 mM HEPES (pH 7.0), 200 mM Na2SO4 at 25°C; DAWN HELEOS II laser photometer; BSA as control

- stoichiometry N: 2
Substance: S. mutans VicK (aa31-450), entire intracellular region (domain or fragment)
